Reference: publication PMC5709507

Tests used:
[1] = molecular target: endogenous RORα of mouse cerebellar neurons and cerebellum (UniProt P51448); assay: co-immunoprecipitation (IP: FLAG, IB: RORα), quantified output band corrected by input band; conditions: primary cerebellar neurons, transient expression; n = 3; parent: est. 3.2; read off a plot
[2] = molecular target: endogenous RORα of mouse cerebellar neurons and cerebellum (UniProt P51448); assay: co-immunoprecipitation (IP: RORα, IB: FLAG), quantified output band corrected by input band; conditions: primary cerebellar neurons, transient expression; n = 3; parent: est. 0.42; read off a plot

UniProt P51448, sequence (P51448 whole entry): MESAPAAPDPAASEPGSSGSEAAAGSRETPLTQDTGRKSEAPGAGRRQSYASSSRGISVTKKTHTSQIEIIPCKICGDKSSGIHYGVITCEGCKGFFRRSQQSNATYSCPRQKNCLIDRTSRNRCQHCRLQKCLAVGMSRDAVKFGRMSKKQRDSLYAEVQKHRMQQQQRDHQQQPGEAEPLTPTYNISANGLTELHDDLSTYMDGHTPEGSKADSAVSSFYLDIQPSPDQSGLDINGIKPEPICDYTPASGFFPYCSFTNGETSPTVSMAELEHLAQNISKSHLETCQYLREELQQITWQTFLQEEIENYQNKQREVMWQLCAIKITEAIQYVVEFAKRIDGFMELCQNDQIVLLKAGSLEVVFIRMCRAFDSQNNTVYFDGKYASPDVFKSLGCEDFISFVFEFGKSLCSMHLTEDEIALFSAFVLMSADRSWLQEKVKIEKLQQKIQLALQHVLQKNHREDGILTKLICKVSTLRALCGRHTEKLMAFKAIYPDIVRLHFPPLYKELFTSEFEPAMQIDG

Substance: Human YAP2 WT (FLAG-YAP2 WT) WQDP>AQDA (first WW domain)
- response [1]: 3.1
- response [2]: 0.4
